Measured values from PMC2915839 (Journal of the American Chemical Society, 2010).
Several values for one entry are separate records, joined by “and”; a condition that tells them apart may be missing. Equal entries are not always repeated.

Legend:
[1] = target: T1, NMR invisible oligomeric species of Aβ (1–40) (Homo sapiens, UniProt P05067); assay: 15N-R2 and 1HN-R2 transverse relaxation; assay type: binding
[2] = Dynamic light scattering / transmission EM of equilibrated samples; assay type: physicochemical; conditions: equilibrated 150 and 300 µM samples
[3] = 150 µM total; 50 mM HEPES, pH 6.8, 10°C
[4] = target: T1, NMR invisible oligomeric species of Aβ (1–40); assay type: binding
^15N-labeled Aβ(1–40) = ^15N-labeled Aβ(1–40) (Homo sapiens, UniProt P05067); assay: Intermolecular paramagnetic relaxation enhancement; assay type: binding
Sequence of ^15N-labeled Aβ(1–40) (P05067 672-711 limits assumed): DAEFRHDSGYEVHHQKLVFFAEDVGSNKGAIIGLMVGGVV

T1 sequence (P05067 672-711 limits assumed): as above

| Substance | konapp (apparent first order rate constant, monomer to oligomer) ([1]; 300 µM total, pH 6.8, 10°C) | 1HN-R1 of monomer ([1]; Aβ(1–40) monomer, 10°C) [s⁻¹] | presence of aggregates by dynamic light scattering [2] | morphology by transmission EM ([2]; negatively stained, >3 weeks) | monomer concentration at pseudo-equilibrium [3] [µM] | timescale of monomer-oligomer dynamic equilibrium [4] [ms] | fraction of oligomers ([4]; 60 µM) | effect of off-resonance saturation pulse on amide signal intensity ([4]; 60 µM, until pulse approaches resonances of the protein) | effect of CW pulse far off-resonance on amide resonances ([4]; 300 µM, RF 180 and 350 Hz) | fraction of peptide within dark oligomeric state exchanging with free monomer ([4]; abstract, concentration not specified) | peptides within the oligomer undergoing exchange with free monomer, 1 in about N ([4]; from fex) | mobility of N-terminal 9 residues upon association with oligomer ([4]; from regional specificity of ΔR2) | population of lower order, transient, self-associated states (^15N-labeled Aβ(1–40); if present, or exchange is slow on the PRE time scale (< ca. 1 ms)) | intermolecular PREs, in words (^15N-labeled Aβ(1–40); 100 µM U-[15N]-Aβ(1–40) + 170 µM spin-labeled F20C variant) |
| --- | --- | --- | --- | --- | --- | --- | --- | --- | --- | --- | --- | --- | --- | --- |
| Aβ(1–40): amyloid β (Aβ) peptide (1–40), uniformly 15N-labeled, prepared from NaOH treated stocks to remove fibril seeds | 3.1 s^−1 and ~ 3 s^−1 | 1 | presence of large polydisperse aggregates was confirmed | elongated morphologically disordered non-fibrillar aggregates with possibly some small needle-like fibrils present | 105 | 10 to 15 | negligible | no effect on the signal intensity of the amide resonances | uniformly attenuated | ~ 3% | about 30 | remain highly mobile | 1–2% | – |
| F20C: single-cysteine variant Aβ(1–40), F20C mutation in the center of the peptide, conjugated to a nitroxide spin-label or a diamagnetic analogue | – | – | – | – | – | – | – | – | – | – | – | – | – | essentially no intermolecular PREs were observed |
